Test results: patent US6828304B1, “Peptides for treatment of cancer” (Dabur Research Foundation, priority 2000, dated 2004)
Peptide text beside a SMILES is read from it. * marks the point of attachment. Palmitoyl = CCCCCCCCCCCCCCCC(=O)*; Myristoyl = CCCCCCCCCCCCCC(=O)*; Octanoyl = CCCCCCCC(=O)*

Key:
Conditions in all cases: 48 hours
[1] = system: KB (Oral squamous) tumor cells; test: MTT cytotoxicity assay, KB cells; assay type: cell-based
Excerpt: (§1) The cytotoxic effect of Lipo peptide analogs, DT-A1 (SEQ ID NO: 2), DT-B1 (SEQ ID NO: 3), DT-01 (SEQ ID NO: 4), DT-M1 (SEQ ID NO: 5) and DT-P1 (SEQ ID NO: 6) was studied by MTT assay which is based on the principle of uptake of MTT [3-[4,5-dimethylthiazol-2-yl]-2,5-diphenyl tetrazolium bromide], a tetrazolium salt by the metabolically active cells where it is metabolized by active mitochondria into a blue colored formazan product which can be read spectrophotometrically. Briefly, tumor cells PTC (primary colon) KB (Oral squamous), U87MG (Glioblastoma), HBL100 (Breast), HeP2 (Laryngeal), ECV304 (Endothelial), PA-1 (Ovary) and L132 (Lung) were incubated with the peptide analogs for 48 hours at 37° C. in a 96-well culture plate, followed by the addition of 100 μg MTT and _further incubation of 1 hour. The formazan crystals formed inside the cells were dissolved with a detergent comprising 10% Sodium dodecyl sulfate and 0.01 N HCl and optical density read on a multiscan ELISA reader. The optical density was directly proportional to the number of proliferating and metabolically active cells.

[2] = system: ECV304 (Endothelial) cells; test: MTT cytotoxicity assay, ECV304 cells; assay type: cell-based
Excerpt: as §1

[3] = system: HBL100 (Breast) tumor cells; test: MTT cytotoxicity assay, HBL100 cells; assay type: cell-based
Excerpt: as §1

PA-1 (Ovary) tumor cells = test: MTT cytotoxicity assay, PA-1 cells; assay type: cell-based
Excerpt: as §1

[4] = system: HeP2 (Laryngeal) tumor cells; test: MTT cytotoxicity assay, HeP2 cells; assay type: cell-based
Excerpt: as §1

[5] = system: PTC (primary colon) tumor cells; test: MTT cytotoxicity assay, PTC cells; assay type: cell-based, human
Excerpt: as §1

L132 (Lung) tumor cells = test: MTT cytotoxicity assay, L132 cells; assay type: cell-based
Excerpt: as §1

[6] = system: U87MG (Glioblastoma) tumor cells; test: MTT cytotoxicity assay, U87MG cells; assay type: cell-based
Excerpt: as §1

Row | Molecule | Percentage cytotoxicity ([1]; 1 nM) [%] | Percentage cytotoxicity ([1]; 10 nM) [%] | Percentage cytotoxicity ([1]; 100 nM) [%] | Percentage cytotoxicity ([1]; 1 μM) [%] | Percentage cytotoxicity ([2]; 1 nM) [%] | Percentage cytotoxicity ([2]; 10 nM) [%] | Percentage cytotoxicity ([2]; 100 nM) [%] | Percentage cytotoxicity ([2]; 1 μM) [%] | Percentage cytotoxicity ([3]; 1 nM) [%] | Percentage cytotoxicity ([3]; 10 nM) [%] | Percentage cytotoxicity ([3]; 100 nM) [%] | Percentage cytotoxicity (PA-1 (Ovary) tumor cells; 1 nM) [%] | Percentage cytotoxicity (PA-1 (Ovary) tumor cells; 10 nM) [%] | Percentage cytotoxicity (PA-1 (Ovary) tumor cells; 100 nM) [%] | Percentage cytotoxicity (PA-1 (Ovary) tumor cells; 1 μM) [%] | Percentage cytotoxicity ([4]; 1 nM) [%] | Percentage cytotoxicity ([4]; 10 nM) [%] | Percentage cytotoxicity ([4]; 100 nM) [%] | Percentage cytotoxicity ([4]; 1 μM) [%] | Percentage cytotoxicity (L132 (Lung) tumor cells; 1 nM) [%] | further results
1 | CCCCCCCCCCCCCC(=O)N[C@@H](CC(C)C)C(=O)N[C@@H](CCSC)C(=O)N[C@@H](Cc1ccc(O)cc1)C(=O)N1CCC[C@H]1C(=O)N[C@H](C(=O)N[C@@H](Cc1ccc(O)cc1)C(=O)N[C@@H](CC(C)C)C(=O)N[C@@H](CCCCN)C(=O)O)[C@@H](C)O [DT-M1, Myristoyl-Leu-Met-Tyr-Pro-Thr-Tyr-Leu-Lys-OH] (Myristoyl-LMYPTYLK-OH) | 21.0 ± 26 | 23.9 ± 3.1 | 19.0 ± 3.2 | 12.9 ± 1.6 | 21.9 ± 1.6 | 16.9 ± 3.1 | 22.9 ± 1.0 | 17.7 ± 1.2 | 21.9 ± 2.4 | 31.6 ± 3.8 | 30.4 ± 2.4 | 27.5 ± 2.9 | 42.0 ± 2.2 | 25.9 ± 3.3 | 15.7 ± 1.2 | 15.8 ± 2.2 | 18.7 ± 2.2 | 22.9 ± 1.3 | 12.9 ± 1.2 | 10.6 ± 1.9 | Percentage cytotoxicity ([3]; 1 μM): 29.6 ± 2.3%; Percentage cytotoxicity ([5]; 1 nM): 26 ± 0.5%; Percentage cytotoxicity ([5]; 10 nM): 25 ± 3.6%; Percentage cytotoxicity ([5]; 100 nM): 31 ± 4.6%; Percentage cytotoxicity ([5]; 1 μM): 30 ± 3.9%; Percentage cytotoxicity (L132 (Lung) tumor cells; 10 nM): 26.7 ± 1.1%; Percentage cytotoxicity (L132 (Lung) tumor cells; 100 nM): 16.8 ± 2.1%; Percentage cytotoxicity (L132 (Lung) tumor cells; 1 μM): 9.6 ± 2.4%; Percentage cytotoxicity ([6]; 1 nM): 29.4 ± 1.2%; Percentage cytotoxicity ([6]; 10 nM): 44.9 ± 2.7%; Percentage cytotoxicity ([6]; 100 nM): 32.2 ± 2.2%; Percentage cytotoxicity ([6]; 1 μM): 5.0 ± 2.5%
2 | Ac-LMYPTYLK-OH [DT-A1, Acetyl-Leu-Met-Tyr-Pro-Thr-Tyr-Leu-Lys-OH] | 25.9 ± 1.6 | 31.0 ± 2.1 | 26.9 ± 2.1 | 21.0 ± 2.3 | 8.0 ± 2.5 | 16.5 ± 3.4 | 22.0 ± 2.3 | 10.8 ± 3.4 | 19.9 ± 3.5 | 31.9 ± 3.5 | 30.5 ± 1.3 | 21.9 ± 1.5 | 24.9 ± 2.6 | 18.5 ± 2.3 | 6.9 ± 3.2 | 14.9 ± 2.2 | 39.9 ± 1.8 | 21.9 ± 2.7 | 19.7 ± 1.1 | 13.9 ± 2.9 | Percentage cytotoxicity ([3]; 1 μM): 28.9 ± 1.2%; Percentage cytotoxicity (L132 (Lung) tumor cells; 10 nM): 26.4 ± 3.2%; Percentage cytotoxicity (L132 (Lung) tumor cells; 100 nM): 14.6 ± 3.1%; Percentage cytotoxicity (L132 (Lung) tumor cells; 1 μM): 12.9 ± 2.4%; Percentage cytotoxicity ([6]; 1 nM): 10.4 ± 1.3%; Percentage cytotoxicity ([6]; 10 nM): 29.9 ± 2.2%; Percentage cytotoxicity ([6]; 100 nM): 26.9 ± 1.5%; Percentage cytotoxicity ([6]; 1 μM): 21.9 ± 1.4%
3 | Palmitoyl-Leu-Met-Tyr-Pro-Thr-Tyr-Leu-Lys-OH (Palmitoyl-LMYPTYLK-OH) [DT-P1] | 21.9 ± 2.6 | 32.0 ± 2.1 | 23.0 ± 2.2 | 18.0 ± 2.6 | 18.8 ± 2.6 | 19.9 ± 3.4 | 31.9 ± 1.3 | 25.9 ± 1.4 | 25.7 ± 2.5 | 34.9 ± 3.6 | 33.3 ± 1.4 | 20.5 ± 1.9 | 21.9 ± 2.2 | 25.6 ± 3.3 | 21.7 ± 2.2 | 13.9 ± 1.2 | 24.9 ± 2.8 | 28.9 ± 1.7 | 14.9 ± 1.3 | 10.9 ± 1.9 | Percentage cytotoxicity ([3]; 1 μM): 28.9 ± 1.3%; Percentage cytotoxicity ([5]; 1 nM): 27 ± 3.1%; Percentage cytotoxicity ([5]; 10 nM): 21 ± 1.2%; Percentage cytotoxicity ([5]; 100 nM): 33 ± 1.1%; Percentage cytotoxicity ([5]; 1 μM): 31 ± 3.1%; Percentage cytotoxicity (L132 (Lung) tumor cells; 10 nM): 29.0 ± 1.2%; Percentage cytotoxicity (L132 (Lung) tumor cells; 100 nM): 19.6 ± 1.1%; Percentage cytotoxicity (L132 (Lung) tumor cells; 1 μM): 17.8 ± 2.2%; Percentage cytotoxicity ([6]; 1 nM): 9.6 ± 1.8%; Percentage cytotoxicity ([6]; 10 nM): 34.0 ± 2.6%; Percentage cytotoxicity ([6]; 100 nM): 32.9 ± 2.5%; Percentage cytotoxicity ([6]; 1 μM): 18.4 ± 2.4%
4 | n-Octanoyl-Leu-Met-Tyr-Pro-Thr-Tyr-Leu-Lys-OH (Octanoyl-LMYPTYLK-OH) [DT-O1] | 21.0 ± 0.6 | 34.9 ± 3.1 | 26.9 ± 2.2 | 23.9 ± 1.3 | 16.9 ± 1.3 | 27.9 ± 3.2 | 24.9 ± 2.4 | 23.9 ± 2.2 | 30.0 ± 1.4 | 33.7 ± 2.8 | 32.8 ± 2.8 | 26.0 ± 3.9 | 37.8 ± 2.2 | 22.6 ± 3.6 | 6.0 ± 1.4 | 8.6 ± 2.5 | 22.9 ± 1.2 | 17.9 ± 2.3 | 18.8 ± 4.2 | 19.4 ± 2.9 | Percentage cytotoxicity ([5]; 1 nM): 28 ± 5.4%; Percentage cytotoxicity ([5]; 10 nM): 32 ± 0.3%; Percentage cytotoxicity ([5]; 100 nM): 33 ± 3.2%; Percentage cytotoxicity ([5]; 1 μM): 29 ± 5.5%; Percentage cytotoxicity (L132 (Lung) tumor cells; 10 nM): 25.9 ± 1.7%; Percentage cytotoxicity (L132 (Lung) tumor cells; 100 nM): 14.9 ± 2.5%; Percentage cytotoxicity (L132 (Lung) tumor cells; 1 μM): 7.9 ± 2.3%; Percentage cytotoxicity ([6]; 1 nM): 37.0 ± 1.6%; Percentage cytotoxicity ([6]; 10 nM): 38.7 ± 1.7%; Percentage cytotoxicity ([6]; 100 nM): 28.6 ± 1.2%; Percentage cytotoxicity ([6]; 1 μM): 21.9 ± 1.5%
